One data set has as its target T1, amphoterin (Homo sapiens, UniProt P09429).
T1 sequence (P09429 1-215): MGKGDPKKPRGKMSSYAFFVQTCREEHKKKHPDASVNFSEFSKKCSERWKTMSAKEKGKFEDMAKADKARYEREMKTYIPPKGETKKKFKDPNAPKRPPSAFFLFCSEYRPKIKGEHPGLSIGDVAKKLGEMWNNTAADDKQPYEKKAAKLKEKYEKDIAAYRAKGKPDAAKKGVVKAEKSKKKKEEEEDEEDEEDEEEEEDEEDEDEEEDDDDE
The experiment in a line: In vitro ligand binding assay (ELISA), immobilized amphoterin. Particulars: ligand 5 micrograms per well; dilutions of initial fusion protein solution; FIG. 7. The procedure: For example, the fusion protein may be used in a binding assay to identify potential ligands that bind to the non-immunoglobulin protein. In one example embodiment of such a binding assay, a known ligand may coated onto a solid substrate (e.g., Maxisorb plates) at a biologically relevant concentration (e.g., about 5 micrograms per well), where each well contains a total volume of about 100 microliters (μL). The plates may be incubated at 4° C. overnight to allow the ligand to bind to the substrate. Alternatively, shorter incubation periods at higher temperature (e.g., room temperature) may be used. After a period of time to allow for the ligand to bind to the substrate, the assay wells may be aspirated and a blocking buffer (e.g., 1% BSA in 50 mM imidizole buffer, pH 7.2) may be added to block nonspecific binding. […] The fusion protein bound to the immobilized ligand may be detected in a variety of ways. […] The bound complex may be detected by adding a substrate for the secondary antibody complex, e.g., the alkaline phosphatase substrate, para-nitrophenylphosphate (PNPP), and measuring conversion of PNPP to para-nitrophenol (PNP) as an increase in absorbance at 405 nm. […] In the absence of ligand (i.e., coating with only BSA) there was no increase in absorbance. The binding assay of the present invention may be used to quantify ligand binding. […]
(In general: In an ELISA, binding on a coated surface is turned into a signal by an enzyme label.)

The nature of data set [1]: Pharmacokinetic profile of TTP-4000 after IV injection. It is filed as in vivo, monkeys. The settings on record: single IV bolus 5 mg/kg; plasma; once TTP-4000 has saturated its ligands; 2 animals; FIG. 11. The procedure: Following collection, the tubes were placed on wet ice (maximum 30 minutes) until centrifugation under refrigeration (at 2 to 8° C.) at 1500×g for 15 minutes. Each harvested plasma sample was then stored frozen (−70° C.±10° C.) until assayed for RAGE polypeptide using an ELISA at various time-points following the injection, as described in Example 6.
In FIG. 11 each curve represents a different animal under the same experimental conditions.
Initially, 50 uL of the RAGE specific monoclonal antibody 1HB1011 at a concentration of 10 ug/mL in 1×PBS pH 7.3 is coated on plates via overnight incubation. When ready for use, plates are washed three times with 300 uL of 1× Imidazole-Tween wash buffer and blocked with 1% BSA. […] The samples are allowed to incubate at room temperature for one hour. After incubation, the plates are plates are washed three times. A Goat Anti-human IgG1 1 (Sigma A3312) AP conjugate in 1×PBS with 1% BSA is added and allowed to incubate at room temperature for 1 hour. The plates are washed three times. Color was elucidated with paranitrophenylphosphate.

Data set [2] relates to S100b/RAGE-induced production of TNF-α in THP-1 cells. The experiment in a line: Inhibition of S100b/RAGE-induced production of TNF-α in THP-1 cells. It counts as cell-based. The settings on record: 10 μg protein, FIG. 10. An excerpt: One embodiment of a use of a RAGE fusion protein of the present invention to modulate expression of the cellular effector TNF-α is shown in FIG. 10. THP-1 myeloid cells may be cultured in RPMI-1640 media supplemented with 10% FBS and induced to secrete TNF-α via stimulation of RAGE with S100b. When such stimulation occurs in the presence of a RAGE fusion protein of the invention, induction of TNF-α by S100b binding to RAGE may be inhibited.
Previous work has shown that the myeloid THP-1 cells may secrete TNF-α in response to RAGE ligands. In this assay, THP-1 cells were cultured in RPMI-1640 media supplemented with 10% FBS using a protocol provided by ATCC. […] The amount of TNF-α secreted by the THP-1 cells was measured 24 hours after the addition of the proteins to the cell culture using a commercially available ELISA kit for TNF-α (R&D Systems, Minneapolis, Minn.).

The next data set deals with mice that have AD. Description: Mice that have Alzheimer's Disease, treated for 3 months. It counts as in vivo. Particulars: versus vehicle or human IgG negative control (IgG1). From the text:
Also, fusion proteins of the present invention comprising a RAGE ligand binding site may also be used to treat reduce amyloidosis and to reduce amyloid plaques and cognitive dysfunction associated with Alzheimer's Disease (AD).

Entries after “also recorded” stand apart in the source; their conditions may differ.

Procedure for Fc receptor: Fc receptor activation was measured by measuring TNF-α secretion from THP-1 cells that express the Fc receptor. […] Fc stimulation results in TNF-α secretion. The amount of TNF-α was measured by an Enzyme Linked Immunoabsorbent Assay (ELISA).
Thus, in this assay, the myeloid cell line, THP-1 (ATTC #TIB-202) was maintained in RPMI-1640 media supplemented with 10% fetal bovine serum per ATCC instructions. […] The amount of TNF-alpha secreted by the THP-1 cells was measured in supernatants collected from 24 hours cultures of cells in the treated wells using a commercially available TNF ELISA kit (R&D Systems, Minneapolis, Minn. #DTA00C) per instructions.

B1: TTP-4000: RAGE fusion protein: V and C1 domains of human RAGE (amino acids 1-251) linked to hinge-less CH2 and CH3 of human IgG1; SEQ ID NO: 16/18 (protein)
chain 1: MAAGTAVGAWVLVLSLWGAVVGAQNITARIGEPLVLKCKGAPKKPPQRLEWKLNTGRTEAWKVLSPQGGGPWDSVARVLPNGSLFLPAVGIQDEGIFRCQAMNRNGKETKSNYRVRVYQIPGKPEIVDSASELTAGVPNKVGTCVSEGSYPAGTLSWHLDGKPLVPNEKGVSVKEQTRRHPETGLFTLQSELMVTPARGGDPRPTFSCSFSPGLPRHRALRTAPIQPRVWEPVPLEEVQLVVEPEGGAVAPPSVFLFPPKPKDTLMISRTPEVTCVVVDVSHEDPEVKFNWYVDGVEVHNAKTKPREEQYNSTYRVVSVLTVLHQDWLNGKEYKCKVSNKALPAPIEKTISKAKGQPREPQVYTLPPSRDELTKNQVSLTCLVKGFYPSDIAVEWESNGQPENNYKTTPPVLDSDGSFFLYSKLTVDKSRWQQGNVFSCSVMHEALHNHYTQKSLSLSPGK
chain 2: ENITARIGEPLVLKCKGAPKKPPQRLEWKLNTGRTEAWKVLSPQGGGPWDSVARVLPNGSLFLPAVGIQDEGIFRCQAMNRNGKETKSNYRVRVYQIPGKPEIVDSASELTAGVPNKVGTCVSEGSYPAGTLSWHLDGKPLVPNEKGVSVKEQTRRHPETGLFTLQSELMVTPARGGDPRPTFSCSFSPGLPRHRALRTAPIQPRVWEPVPLEEVQLVVEPEGGAVAPPSVFLFPPKPKDTLMISRTPEVTCVVVDVSHEDPEVKFNWYVDGVEVHNAKTKPREEQYNSTYRVVSVLTVLHQDWLNGKEYKCKVSNKALPAPIEKTISKAKGQPREPQVYTLPPSRDELTKNQVSLTCLVKGFYPSDIAVEWESNGQPENNYKTTPPVLDSDGSFFLYSKLTVDKSRWQQGNVFSCSVMHEALHNHYTQKSLSLSPGK
modifications: synthetic four domain RAGE-Fc IgG fusion protein; synthetic four domain RAGE-Fc IgG fusion protein having signal sequence removed
Take B1: the “binding to immobilized amphoterin (increase in absorbance at 405 nm)” value with amphoterin was “able to bind; also recorded: specifically interact”. For the same molecule, in data set [1], the terminal half-life result was “greater than 300 hours”. Moreover, the “reduction of S100b induction of TNF-α” value in data set [2] (S100b 0.1 mg/ml FAC, TNF-α ELISA at 24 hours) is listed as about 70%. Moreover, in data set [2] (S100b 0.1 mg/ml), the “S100b induction of TNF-α, result in words” value is given as “at least as effective”. Further, in the data set with mice that have AD, the “amyloid beta (Aβ) plaques” value is given as “fewer amyloid beta (Aβ) plaques” and the cognitive dysfunction result is “less cognitive dysfunction”. The “stimulation of TNF-α release from cells, in words” value in the data set on Fc receptor is on record as “does not stimulate TNF-α release”.

The values above are taken from patent publication US20110110945A1, “Immunoglobulin Fusion Proteins and Methods of Making” (TransTech Pharma, Inc., priority 2007, published 2011).
